Results published in patent US20250026823A1 (MERUS N V, published 2025).
Positions count from the first letter of the chain named. Blank lines part the entries; values can stand above or below the binder they belong to.

Tests used:
[1] = target: T1, CLEC12A expressed on cells (CLEC12A-transfected CHO cells; HL60 cells) (UniProt Q5QGZ9 1-265, limits assumed); experiment: cell-based or functional assay
T1 sequence (looked up): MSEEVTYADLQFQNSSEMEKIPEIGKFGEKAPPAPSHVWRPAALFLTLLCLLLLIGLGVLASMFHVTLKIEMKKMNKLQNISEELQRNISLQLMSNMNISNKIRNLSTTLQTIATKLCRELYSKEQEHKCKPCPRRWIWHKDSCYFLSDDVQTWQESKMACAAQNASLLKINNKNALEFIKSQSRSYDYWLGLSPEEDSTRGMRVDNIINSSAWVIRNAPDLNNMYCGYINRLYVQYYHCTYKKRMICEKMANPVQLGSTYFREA

[2] = target: T2, extracellular domain of CLEC12A (amino acids 75 to 275) coupled to a His-tag (Sino Biological, cat.no. … (UniProt Q5QGZ9-1 75-275)); experiment: ELISA, extracellular domain of CLEC12A coated at 2 µg/ml
T2 construct: range 75-275; Bought protein; also called coated CLEC12A; isolated extracellular domain of CLEC12A; not shown: His-tag
T2 sequence (looked up): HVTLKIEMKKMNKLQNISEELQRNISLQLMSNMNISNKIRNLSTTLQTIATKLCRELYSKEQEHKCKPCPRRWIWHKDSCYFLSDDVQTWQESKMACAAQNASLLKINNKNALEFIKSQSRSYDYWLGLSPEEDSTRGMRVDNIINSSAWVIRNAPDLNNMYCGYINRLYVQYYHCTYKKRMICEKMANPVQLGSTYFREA

[3] = target: T1, CLEC12A expressed on cells …; experiment: flow cytometry on CLEC12A-transfected CHO cells
[4] = target: T1, CLEC12A expressed on cells …; experiment: flow cytometry on HL60 cells, optimized IgG concentration

optical density [2]: 1.42
mean fluorescent intensity [3]: 4150
mean fluorescent intensity [4]: 1470
B2: CLEC12A monospecific antibody (3116x3116) (antibody, V domains shown)
VH: QVQLQESGPGLVKPSETLSLTCVVSGGSISSSNWWSWVRQPPGKGLEWIGEIYHSGSPDYNPSLKSRVTISVDKSRNQFSLKLSSVTAADTAVYYCAKVSTGGFFDYWGQGTLVTVSS
VL: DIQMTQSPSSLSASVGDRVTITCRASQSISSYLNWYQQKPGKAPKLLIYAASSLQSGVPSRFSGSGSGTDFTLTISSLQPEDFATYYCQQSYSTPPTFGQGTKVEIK
notes: Bivalent IgG; also called CLEC12A benchmark antibody; CLEC12A benchmark IgG

mean fluorescent intensity [3]: 282
B4: CD3 monospecific antibody (3056x3056) (antibody, V domains shown)
VH: QVQLVQSGGGVVQPGRSLRLSCVASGFTFSSYGMHWVRQAPGKGLEWVAAIWYNGRKQDYADSVKGRFTISRDNSKNTLYLQMNSLRAEDTAVYYCTRGTGYNWFDPWGQGTLVTVSS
VL: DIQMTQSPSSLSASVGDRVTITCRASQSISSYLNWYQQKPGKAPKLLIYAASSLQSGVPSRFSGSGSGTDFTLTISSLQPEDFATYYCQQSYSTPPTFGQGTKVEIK
notes: Full length bivalent monoclonal IgG; also called CD3 IgG

More lines, now with the values behind:

B1: CD3XCLEC12A bsAb (3056x3116) with DM-Fc (bispecific antibody, V domains shown)
VH 1: B4 VH
VH 2: B2 VH
VL: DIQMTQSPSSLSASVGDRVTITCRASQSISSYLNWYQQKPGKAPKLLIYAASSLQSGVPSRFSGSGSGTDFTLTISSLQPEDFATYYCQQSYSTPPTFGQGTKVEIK
lysis of HL60 cells by AML patient derived T-cells (percentage of specific lysis relative to IgG) [1]: 68%
lysis of HL60 cells by healthy donor T cells (percentage of specific lysis relative to IgG) [1]: 69%

B3: candidate 3056x3116 CD3xCLEC12A bispecific IgG1 (bispecific antibody, V domains shown)
VH 1: B4 VH
VH 2: B2 VH
VL: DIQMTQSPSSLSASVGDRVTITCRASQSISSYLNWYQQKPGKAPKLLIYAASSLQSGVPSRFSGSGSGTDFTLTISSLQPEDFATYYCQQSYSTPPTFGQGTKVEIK
notes: Full length human IgG1 with wild type Fc and a common huVk1-39 light chain; The heavy chains were heterodimerised by known methods (Gunasekaran et al; WO2009/089004); also called CD3XCLEC12A WT Fc IgG1
mean fluorescent intensity [3]: 5300

B5: 4327 CLEC12A IgG (antibody, V domains shown)
VH: QVQLVQSGAEVKKPGASVKVSCKASGYTFTSYYMHWVRQAPGQGLEWMGIINPSGGSTSYAQKFQGRVTMTRDTSTSTVYMELSSLRSEDTAVYYCAKGTTGDWFDYWGQGTLVTVSS
VL: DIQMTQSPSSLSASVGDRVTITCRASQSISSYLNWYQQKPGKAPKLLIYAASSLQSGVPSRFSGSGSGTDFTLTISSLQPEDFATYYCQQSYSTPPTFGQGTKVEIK
notes: Full length human IgG1
optical density [2]: 1.31
mean fluorescent intensity [4]: 1560

B6: 4331 CLEC12A IgG (antibody, V domains shown)
VH: B5 VH with Q1E, K98R, T100N, T101Y, W104E
VL: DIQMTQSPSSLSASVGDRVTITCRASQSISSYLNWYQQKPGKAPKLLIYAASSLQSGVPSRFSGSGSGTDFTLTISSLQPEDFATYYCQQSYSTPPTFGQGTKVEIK
notes: Full length human IgG1
optical density [2]: 1.33
mean fluorescent intensity [4]: 1110
